Several values for one entry are separate records, joined by “and”; a condition that tells them apart may be missing. Identical values can stand only once.
T1: luteinizing hormone-releasing hormone (LHRH) receptor (human, UniProt P30968 1-328)
T1 sequence (looked up): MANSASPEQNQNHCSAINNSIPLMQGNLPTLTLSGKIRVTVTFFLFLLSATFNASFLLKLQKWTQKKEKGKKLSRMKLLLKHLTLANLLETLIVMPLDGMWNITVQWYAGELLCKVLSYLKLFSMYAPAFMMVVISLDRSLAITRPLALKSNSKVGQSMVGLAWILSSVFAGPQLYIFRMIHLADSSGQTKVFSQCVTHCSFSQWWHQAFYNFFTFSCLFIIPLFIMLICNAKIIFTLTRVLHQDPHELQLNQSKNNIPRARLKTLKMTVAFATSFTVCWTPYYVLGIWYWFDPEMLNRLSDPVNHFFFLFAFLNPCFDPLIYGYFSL


Columns and labels:
[1] = target: luteinizing hormone-releasing hormone (LHRH) receptor (human) (UniProt P30968); experiment: cell-based or functional assay
[2] = target: T1, luteinizing hormone-releasing hormone …; experiment: cell-based or functional assay

Molecule	IC50, cytotoxicity in TM4 cells (no LHRH receptors; receptor-negative control) [1]	IC50, cytotoxicity (MTT) in MCF-7 cells [2]	IC50, cytotoxicity (MTT) in MDA-MB-435S cells, 0.5 hour incubation [2]	IC50, cytotoxicity (MTT) in MDA-MB-435S cells, 1 hour incubation [2]	IC50, cytotoxicity (MTT) in OVCAR-3 cells, increasing incubation time (1st of 7 values) [2]	IC50, cytotoxicity (MTT) in OVCAR-3 cells, increasing incubation time (2nd of 7 values) [2]	IC50, cytotoxicity (MTT) in OVCAR-3 cells, increasing incubation time (3rd of 7 values) [2]	IC50, cytotoxicity (MTT) in OVCAR-3 cells, increasing incubation time (4th of 7 values) [2]	IC50, cytotoxicity (MTT) in OVCAR-3 cells, increasing incubation time (5th of 7 values) [2]	IC50, cytotoxicity (MTT) in OVCAR-3 cells, increasing incubation time (6th of 7 values) [2]	IC50, cytotoxicity (MTT) in OVCAR-3 cells, increasing incubation time (7th of 7 values) [2]	IC50, cytotoxicity (MTT) in SKOV-3 cells, 24 hours incubation (cells without functional LHRH receptors; receptor-negative control) [2]
LHRH-Phor21 (peptide)	10900 nM	–	–	–	–	–	–	–	–	–	–	–
KFAKFAKKFAKFAKKFAKQHWSYGLRPG [Phor18-LHRH (338613)]	–	3400 nM and 1800 nM	1200 nM	600 nM	6700 nM	5600 nM	5300 nM	1600 nM	1500 nM	500 nM	500 nM	11500 nM
